Assay results taken from article PMC11466669 (The Journal of Biological Chemistry, 2024).
Substitutions are numbered along the chain they refer to. In names and notes the source's numbering stands.

T1: MsRuvC WT (Mycobacterium smegmatis mc2 155) (UniProt A0QWH4)
T1 sequence: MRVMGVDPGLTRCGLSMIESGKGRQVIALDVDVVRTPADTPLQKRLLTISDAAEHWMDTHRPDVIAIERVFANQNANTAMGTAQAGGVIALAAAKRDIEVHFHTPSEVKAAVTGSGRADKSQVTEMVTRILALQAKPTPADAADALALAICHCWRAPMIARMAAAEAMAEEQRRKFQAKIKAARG

T2: MsRuvC WT (Mycobacterium smegmatis mc2 155, UniProt A0QWH4 1-185)
T2 sequence: T1 sequence

T3: MsRuvC-D7A (Mycobacterium smegmatis mc2 155, UniProt A0QWH4 1-185, D7A)
T3 sequence: T1 sequence with D7A

T4: MsRuvC-E68A (Mycobacterium smegmatis mc2 155, UniProt A0QWH4 1-185, E68A)
T4 sequence: T1 sequence with E68A

B1: Mobile HJ (MST) (structured_DNA)
DNA 1: GACGCTGCCGAATTCTACCAGTGCCTTGCTAGGACATCTTTGCCCACCTGCAGGTTCACCC
DNA 2: TGGGTGAACCTGCAGGTGGGCAAAGATGTCCTAGCAATGTAATCGTCAAGCTTTATGCCGTT
DNA 3: CAACGGCATAAAGCTTGACGATTACATTGCTAGGACATGCTGTCTAGAGGATCCGACTATCGA
DNA 4: ATCGATAGTCGGATCCTCTAGACAGCATGTCCTAGCAAGGCACTGGTAGAATTCGGCAGCGT
B2: Mycobacterium smegmatis RuvC (enzyme)
chain: T1 sequence
B3: MsRuvC-E68A (enzyme)
chain: T1 sequence with E68A
B4: MsRuvC-D7A (enzyme)
chain: T1 sequence with D7A

Experiments:
[1] = biological target: T1, MsRuvC WT (Mycobacterium smegmatis mc2 155); test: SPR
MsRuvC WT = biological target: T2, MsRuvC WT; test: MST
MsRuvC-D7A = biological target: T3, MsRuvC-D7A; test: MST
MsRuvC-E68A = biological target: T4, MsRuvC-E68A; test: MST
SEC = biological target: the molecule itself; test: SEC

Molecule	Kd [1] [nM]	stoichiometry N (SEC)	further results
dsDNA with 5'-ssDNA overhang	201	–	–
3'-flap structure (SPR)	296	–	–
dsDNA with 3'-ssDNA overhang	263	–	–
5'-flap structure	410	–	–
Replication fork	203	–	–
Splayed-arm duplex	480	–	–
B1	–	–	Kd (MsRuvC WT): 580 ± 270 nM; Kd (MsRuvC-D7A): 650 ± 170 nM; Kd (MsRuvC-E68A): 300 ± 110 nM
B2	–	2	–
B3	–	2	–
B4	–	2	–
